Data on six molecules can be found in patent US20070264195A1 (H LUNDBECK A S, published 2007).

First the molecules themselves.
T1: purified human Sortilin extracellular domain (human, UniProt Q99523 78-755)
T1 construct: also called immobilized Sortilin; NTR-3
T1 sequence: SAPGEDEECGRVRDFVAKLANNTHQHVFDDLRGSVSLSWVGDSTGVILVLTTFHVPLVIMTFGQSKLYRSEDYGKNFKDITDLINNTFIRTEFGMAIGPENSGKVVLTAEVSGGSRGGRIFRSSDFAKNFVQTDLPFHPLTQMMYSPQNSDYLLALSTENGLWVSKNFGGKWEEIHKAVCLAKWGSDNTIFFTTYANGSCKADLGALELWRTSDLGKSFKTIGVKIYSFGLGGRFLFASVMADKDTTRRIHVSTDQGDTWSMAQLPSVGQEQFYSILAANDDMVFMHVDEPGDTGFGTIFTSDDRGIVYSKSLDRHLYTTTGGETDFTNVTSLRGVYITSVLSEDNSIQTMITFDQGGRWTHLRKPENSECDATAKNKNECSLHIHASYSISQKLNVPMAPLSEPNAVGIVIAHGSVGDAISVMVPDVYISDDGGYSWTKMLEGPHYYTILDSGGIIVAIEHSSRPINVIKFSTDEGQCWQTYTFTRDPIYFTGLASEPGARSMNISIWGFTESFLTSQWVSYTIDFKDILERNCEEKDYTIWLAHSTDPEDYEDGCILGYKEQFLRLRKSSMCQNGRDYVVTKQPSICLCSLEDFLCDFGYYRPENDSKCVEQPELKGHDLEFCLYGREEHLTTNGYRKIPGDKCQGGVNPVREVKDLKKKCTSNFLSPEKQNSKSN

B1: Mature murine NGF (Austral Biologicals) (ligand, UniProt P01139 122-241, looked up)
chain: SSTHPVFHMGEFSVCDSVSVWVGDKTTATDIKGKEVTVLAEVNINNSVFRQYFFETKCRASNPVESGCRGIDSKHWNSYCTTTHTFVKALTTDEKQAAWRFIRIDTACVCVLSRKATRRG
notes: mature; also called nerve growth factor
B2: recombinant human p75 neurotrophin receptor/Fc chimera (R&D Systems) (Fc fusion, UniProt P08138 29-250, looked up)
chain: KEACPTGLYTHSGECCKACNLGEGVAQPCGANQTVCEPCLDSVTFSDVVSATEPCKPCTECVGLQSMSAPCVEADDAVCRCAYGYYQDETTGRCEACRVCEAGSGLVFSCQDKQNTVCEECPDGTYSDEANHVDPCLPCTVCEDTERQLRECTRWADAECEEIPGRWITRSTPPEGSDSTAPSTQEPEAPPEQDLIASTVAGVVTTVMGSSQPVVTRGTTDN
notes: Bought reagent; also called p75-IgG-Fc chimeric protein; p75NTR; not shown: IgG Fc of the bought chimera
B3: Mature recombinant human BDNF (Promega #G1491) (ligand)
chain: HSDPARRGELSVCDSISEWVTAADKKTAVDMSGGTVTVLEKVPVSKGQLKQYFYETKCNPMGYTKEGCRGIDKRHWNSQCRTTQSYVRALTMDSKKRIGWRFIRIDTSCVCTLTIKRGR
notes: also called mature BDNF
B4: human NGF-propeptide expressed in E. coli (peptide)
chain: EPHSESNVPAGHTIPQVHWTKLQHSLDTALRRARSAPAAAIAARVAGQTRNITVDPRLFKKRRLRSPRVLFSTQPPREAADTQDLDFEVGGAAPFNRTHRSKR
notes: The residues 19-121 come from the description of the propart for NGF; also called proNGF propeptide; propeptide of proNGF
B5: Rat proBDNF (produced in 293 cells, purified from conditioned medium) (ligand, UniProt P23363 19-249, looked up)
chain: APMKEANVHGQGNLAYPAVRTHGTLESVNGPRAGSRGLTTTSLADTFEHVIEELLDEDQKVRPNEENHKDADLYTSRVMLSSQVPLEPPLLFLLEEYKNYLDAANMSMRVRRHSDPARRGELSVCDSISEWVTAADKKTAVDMSGGTVTVLEKVPVSKGQLKQYFYETKCNPMGYTKEGCRGIDKRHWNSQCRTTQSYVRALTMDSKKRIGWRFIRIDTSCVCTLTIKRGR
notes: Pro-form of BDNF
B6: pro-domain of human BDNF fused to GST (glutathione S-transferase), produced in E. coli (other)
chain: APMKEANIRGQGGLAYPGVRTHGTLESVNGPKAGSGLTSLADTFEHVIEELLDEDQKVRPNEENNKDADLYTSRVMLSSQVPLEPPLLFLLEEYKNYLDAANMSMRVRR
notes: The residues 19-127 come from the description of the propart for BDNF; also called GST-pro-domain of proBDNF; pro-domain of proBDNF (a GST-fusion protein); not shown: glutathione S-transferase (GST) fusion partner

Assay [1] concerns the target B2. Put plainly: SPR (BIAcore), 50-500 nM NGF over p75-IgG-Fc immobilized at 91.5 fmol/mm2. As to the method:
(§1) FIG. 2: Characterization of NGF binding to p75, TrkA, and Sortilin as measured by surface plasmon resonance analysis (BIAcore). Binding of 50-500 nM NGF was measured to 91.5 fmol/mm² immobilized p75-IgG-Fc chimeric protein (upper panel), to 66 fmol/mm² immobilized TrkA-IgG-Fc (middle panel), and to 51 fmol/mm² purified Sortilin extracellular domain (lower panel).

The target of assay [2] is T1, purified human Sortilin extracellular …. Kind of assay: SPR (BIAcore), 50-500 nM NGF over Sortilin extracellular domain immobilized at 51 fmol/mm2. How it is done:
as §1

Assay [3] deals with T2, recombinant human TrkA/Fc chimera (R&D Systems) (human, UniProt P04629-2 34-407).
T2 construct: Bought reagent; also called TrkA-IgG-Fc; not shown: IgG Fc of the bought chimera
T2 sequence (P04629 other isoform, or with tags, fused parts or gaps mutant): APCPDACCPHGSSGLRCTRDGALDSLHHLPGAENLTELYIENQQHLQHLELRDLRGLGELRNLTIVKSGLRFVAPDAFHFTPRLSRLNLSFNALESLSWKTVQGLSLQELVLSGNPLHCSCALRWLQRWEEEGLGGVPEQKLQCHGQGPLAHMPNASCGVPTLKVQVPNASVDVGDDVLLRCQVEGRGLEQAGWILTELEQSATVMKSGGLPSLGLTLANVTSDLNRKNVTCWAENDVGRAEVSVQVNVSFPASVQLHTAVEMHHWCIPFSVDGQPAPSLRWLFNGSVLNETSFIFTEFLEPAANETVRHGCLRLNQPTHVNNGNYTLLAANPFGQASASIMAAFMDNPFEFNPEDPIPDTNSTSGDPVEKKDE
Kind of assay: SPR (BIAcore), 50-500 nM NGF over TrkA-IgG-Fc immobilized at 66 fmol/mm2. As to the method: as §1

The target in assay [4] is T3, Human recombinant proNGF (produced in E. coli) (human, UniProt P01138 19-241).
T3 construct: The end 241 is the end of the entry as printed
Put plainly: SPR (BIAcore), 25-500 nM proNGF over p75-IgG-Fc immobilized at 91.5 fmol/mm2. As to the method: FIG. 3: Characterization of proNGF binding to p75, TrkA, and Sortilin as measured by surface plasmon resonance analysis (BIAcore). Binding of 25-500 nM proNGF was measured to 91.5 fmol/mm² immobilized p75-IgG-Fc chimeric protein (upper panel), to 66 fmol/mm² immobilized TrkA-IgG-Fc (middle panel), and to 51 fmol/mm² purified Sortilin extracellular domain (lower panel).

For assay [5], the target named is T1, purified human Sortilin extracellular …. Put plainly: SPR (BIAcore), other preparations of mature BDNF over immobilized Sortilin; other preparations of mature BDNF.
Assay [6] has the same target. Put plainly: SPR (BIAcore), 5-500 nM BDNF over Sortilin extracellular domain immobilized at 94 fmol/mm2; Promega #G1491 preparation. The text has this: (§2) FIG. 7: Characterization of proBDNF and BDNF binding to purified Sortilin as measured by surface plasmon resonance (BIAcore). Rat proBDNF was produced in 293 cells as described in Lee, R., Kermani, P., Teng, K. K. & Hempstead, B. L. Regulation of cell survival by secreted proneurotrophins. Science 294, 1945-1948 (2001). and purified from the conditioned medium. Mature recombinant human BDNF was from Promega (#G1491) and the pro-domain of human BDNF fused to GST (glutathione S-transferase) was produced in E. coli and purified by glutathione-sepharose affinity chromatography. Binding of 5-500 nM proBDNF (upper panel), pro-domain of proBDNF (a GST-fusion protein, middle panel) or BDNF (lower panel) was measured to 94 fmol/mm2 immobilized purified Sortilin extracellular domain. The experiment was carried out essentially as described for FIGS. 2-4.

The target in assay [7] is T2, recombinant human TrkA/Fc chimera (R&D …). Kind of assay: SPR (BIAcore), TrkA-IgG-Fc immobilized at 66 fmol/mm2. As to the method:
(§3) FIG. 4: Characterization of binding of the proNGF propeptide to p75, TrkA, and Sortilin as measured by surface plasmon resonance analysis (BIAcore). Binding of 25-500 nM propeptide was measured to 91.5 fmol/mm² immobilized p75-IgG-Fc chimeric protein (upper panel), to 66 fmol/mm² immobilized TrkA-IgG-Fc (middle panel), and to 51 fmol/mm² purified Sortilin extracellular domain (lower panel). […] There was no detectable binding to p75 and TrkA.

Assay [8] addresses B2. Put plainly: SPR (BIAcore), p75-IgG-Fc immobilized at 91.5 fmol/mm2. As to the method:
as §3

Assay [9] deals with T1, purified human Sortilin extracellular …. Put plainly: SPR (BIAcore), 25-500 nM propeptide over Sortilin extracellular domain immobilized at 51 fmol/mm2. As to the method:
as §3

Assay [10] shares this target. Put plainly: SPR (BIAcore), 5-500 nM proBDNF over Sortilin extracellular domain immobilized at 94 fmol/mm2.
From the text: as §2

Assay [11] has the same target. Put plainly: SPR (BIAcore), 5-500 nM GST-pro-domain over Sortilin extracellular domain immobilized at 94 fmol/mm2.
From the text: as §2

On to B1, for which the Kd in assay [1] is ~1 nM; in assay [2], ~87 nM; in [3], ~2 nM.
For B2, the Kd in assay [4] is ~12 nM.
Regarding B3, the values for the Kd in assay [5] and in assay [6] were 10 nM and ~40 nM, respectively.
Turning to B4, the binding result in assay [7] and in assay [8] was “no binding (tested: 25-500 nM propeptide)” in each case. Moreover, the Kd in [9] is ~87 nM.
As for B5, the equilibrium dissociation constant (Kd) in [10] is ~3 nM.
Consider B6, for which the Kd in assay [11] is ~58 nM.
